According to PMC6255812, “Structural basis for activation of plasma-membrane Ca^2+-ATPase by calmodulin” (Communications Biology, 2018):

T1: ACA8core (core of ACA8, residues 131-1074, construct lacking the regulatory domain) (UniProt Q9LF79 131-1074)
T1 construct: Embedded in MSP1D1/POPC nanodiscs in the assay; also called core enzyme; ACA8 mutant lacking the regulatory domain
T1 sequence (looked up): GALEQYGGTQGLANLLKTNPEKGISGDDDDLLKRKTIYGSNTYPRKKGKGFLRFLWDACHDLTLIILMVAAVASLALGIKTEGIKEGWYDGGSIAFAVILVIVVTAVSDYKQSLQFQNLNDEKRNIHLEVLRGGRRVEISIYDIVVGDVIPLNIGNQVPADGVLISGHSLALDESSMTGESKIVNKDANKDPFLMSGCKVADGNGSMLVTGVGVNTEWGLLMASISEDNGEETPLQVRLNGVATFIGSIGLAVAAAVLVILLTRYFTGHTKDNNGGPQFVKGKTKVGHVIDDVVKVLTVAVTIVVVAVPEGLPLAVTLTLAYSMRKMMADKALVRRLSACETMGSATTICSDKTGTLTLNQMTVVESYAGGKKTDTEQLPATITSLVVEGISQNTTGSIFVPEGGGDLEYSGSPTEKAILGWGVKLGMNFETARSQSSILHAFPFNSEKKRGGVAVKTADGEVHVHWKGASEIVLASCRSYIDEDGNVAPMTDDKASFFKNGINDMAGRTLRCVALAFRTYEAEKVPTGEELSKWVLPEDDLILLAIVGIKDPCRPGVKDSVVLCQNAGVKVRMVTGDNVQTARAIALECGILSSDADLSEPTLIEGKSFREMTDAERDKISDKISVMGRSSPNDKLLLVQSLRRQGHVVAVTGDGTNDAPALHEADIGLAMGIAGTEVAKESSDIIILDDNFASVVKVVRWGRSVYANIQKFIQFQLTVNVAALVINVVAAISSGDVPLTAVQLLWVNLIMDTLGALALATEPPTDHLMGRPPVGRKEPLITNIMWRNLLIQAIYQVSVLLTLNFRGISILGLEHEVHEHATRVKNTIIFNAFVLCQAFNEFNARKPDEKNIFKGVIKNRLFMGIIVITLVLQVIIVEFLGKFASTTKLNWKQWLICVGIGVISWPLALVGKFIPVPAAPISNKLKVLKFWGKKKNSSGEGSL

B1: full-length ACA8 (plasma-membrane Ca2+-ATPase ACA8) (enzyme)
chain: MTSLLKSSPGRRRGGDVESGKSEHADSDSDTFYIPSKNASIERLQQWRKAALVLNASRRFRYTLDLKKEQETREMRQKIRSHAHALLAANRFMDMGRESGVEKTTGPATPAGDFGITPEQLVIMSKDHNSGALEQYGGTQGLANLLKTNPEKGISGDDDDLLKRKTIYGSNTYPRKKGKGFLRFLWDACHDLTLIILMVAAVASLALGIKTEGIKEGWYDGGSIAFAVILVIVVTAVSDYKQSLQFQNLNDEKRNIHLEVLRGGRRVEISIYDIVVGDVIPLNIGNQVPADGVLISGHSLALDESSMTGESKIVNKDANKDPFLMSGCKVADGNGSMLVTGVGVNTEWGLLMASISEDNGEETPLQVRLNGVATFIGSIGLAVAAAVLVILLTRYFTGHTKDNNGGPQFVKGKTKVGHVIDDVVKVLTVAVTIVVVAVPEGLPLAVTLTLAYSMRKMMADKALVRRLSACETMGSATTICSDKTGTLTLNQMTVVESYAGGKKTDTEQLPATITSLVVEGISQNTTGSIFVPEGGGDLEYSGSPTEKAILGWGVKLGMNFETARSQSSILHAFPFNSEKKRGGVAVKTADGEVHVHWKGASEIVLASCRSYIDEDGNVAPMTDDKASFFKNGINDMAGRTLRCVALAFRTYEAEKVPTGEELSKWVLPEDDLILLAIVGIKDPCRPGVKDSVVLCQNAGVKVRMVTGDNVQTARAIALECGILSSDADLSEPTLIEGKSFREMTDAERDKISDKISVMGRSSPNDKLLLVQSLRRQGHVVAVTGDGTNDAPALHEADIGLAMGIAGTEVAKESSDIIILDDNFASVVKVVRWGRSVYANIQKFIQFQLTVNVAALVINVVAAISSGDVPLTAVQLLWVNLIMDTLGALALATEPPTDHLMGRPPVGRKEPLITNIMWRNLLIQAIYQVSVLLTLNFRGISILGLEHEVHEHATRVKNTIIFNAFVLCQAFNEFNARKPDEKNIFKGVIKNRLFMGIIVITLVLQVIIVEFLGKFASTTKLNWKQWLICVGIGVISWPLALVGKFIPVPAAPISNKLKVLKFWGKKKNSSGEGSL
notes: Integral membrane protein; in most experiments embedded in MSP1D1 nanodiscs (POPC, POPC/POPG, POPC/soy-PI or deuterated stealth nanodiscs); The nanodisc belt protein is a carrier and not a partner; also called apo-ACA8; ACA8-ND; source: used DDM-solubilised or reconstituted in MSP1D1 nanodiscs (Superdex200)
B2: fluorescein-labeled regulatory domain of ACA8 (ACA8RD, residues 1-130) (domain or fragment)
chain: CMTSLLKSSPGRRRGGDVESGKSEHADSDSDTFYIPSKNASIERLQQWRKAALVLNASRRFRYTLDLKKEQETREMRQKIRSHAHALLAANRFMDMGRESGVEKTTGPATPAGDFGITPEQLVIMSKDHNS
modifications: Alexa Fluor 488 C5 maleimide (the paper also calls it fluorescein) for labelling of the introduced cysteine
notes: a cysteine introduced right before the first residue of the regulatory domain, for site specific labeling with thiol-reactive probes; ACA8 regulatory domain, residues 1-130; also called labeled RD; not shown: His6, N-terminal, cleaved; lipoamyl domain, N-terminal, cleaved

Legend:
[1] = target: T2, fluorescein-labeled CaM (CaM7 from A. thaliana) (A. thaliana, UniProt P59220 1-149, Alexa Fluor 488 C5 maleimide label (the paper also calls it fluorescein-labeled and FITC-labeled); site not stated); assay: fluorescence polarisation; fluorescence anisotropy; full-length ACA8 in POPC nanodiscs titrated into 15 nM labelled CaM; 20 °C; 30 mM Tris pH 8.0, 150 mM NaCl, 2 mM CaCl2, 0.5 mM TCEP; one-site model; apparent; settings: both partners purified
T2 construct: calmodulin 7 (CaM7), A. thaliana; Same protein as m2 with a thiol-reactive fluorophore; also called FITC-labeled CaM; source: E. coli BL21 Gold (DE3), purified (HiTrap Phenyl HP), labelled, PD10 column

[2] = target: T1, ACA8core (core of ACA8, residues …); assay: fluorescence polarisation; fluorescence anisotropy; 25 µM ACA8core in POPC nanodiscs titrated into 50 nM labelled ACA8RD; 20 °C; 30 mM Tris pH 8.0, 150 mM NaCl, 2 mM CaCl2, 0.5 mM TCEP; one-site model; settings: both partners purified

Binder | Kd [1] [nM] | Kd [2] [nM]
B1 | 18 | –
B2 | – | 1700
